B1: Proteinase K: hydrolytic enzyme (Merck) used to treat cytosol (protein, UniProt P06873 106-384, looked up)
Proteinase K: AAQTNAPWGLARISSTSPGTSTYYYDESAGQGSCVYVIDTGIEASHPEFEGRAQMVKTYYYSSRDGNGHGTHCAGTVGSRTYGVAKKTQLFGVKVLDDNGSGQYSTIIAGMDFVASDKNNRNCPKGVVASLSLGGGYSSSVNSAAARLQSSGVMVAVAAGNNNADARNYSPASEPSVCTVGASDRYDRRSSFSNYGSVLDIFGPGTSILSTWIGGSTRSISGTSMATPHVAGLAAYLMTLGKTTAASACRYIADTANKGDLSNIPFGTVNLLAYNNYQA
B2: Ribonuclease A: hydrolytic enzyme (Sigma-Aldrich) used to treat cytosol (protein, UniProt P61823 27-150, looked up)
Ribonuclease pancreatic: KETAAAKFERQHMDSSTSAASSSNYCNQMMKSRNLTKDRCKPVNTFVHESLADVQAVCSQKNVACKNGQTNCYQSYSTMSITDCRETGSSKYPNCAYKTTQANKHIIVACEGNPYVPVHFDASV

Tested on: binding sites of PREG [3H] in brain cytosol
Assay: Effects of hydrolytic enzymes on the binding of PREG [3H] in cytosol
Parameters: species or system rat
Settings: for % of Control (binding of PREG [3H]): cytosol incubated with enzyme at 37° C. for 30 min, mean±standard error, n=3
Method: Proteinase K (Merck, Darmstadt, Germany) and Pronase® are dissolved at 1 mg/ml in TNM buffer containing 10 mM of Tris, 0.1M of NaCl, 3 mM of MgCl2 (pH 7.4). Deoxyribonuclease I and ribonuclease A are products of Sigma-Aldrich and are respectively adjusted to 100 IU/ml and 5 IU/ml. Phospholipase A2 (Roche Molecular Biochemicals) is diluted to 20 IU/ml in TNM.
1 ml of brain cytosol is incubated with 0.2 ml of an enzyme solution at 37° C. for 30 min. The binding activity is studied of samples (0.2 ml) which had undergone the enzyme treatment or control samples diluted with buffer only.
To study the effects of hydrolytic enzymes on the binding of PREG [^3H], samples of 1 ml of cytosol incubated with 0.2 ml of an enzyme solution at 37° C. for 30 min were used. The results obtained, expressed as % of the control incubation (cytosol diluted in a buffer) are reported in Table 1 (mean±standard error, n=3).

Molecule	% of Control (binding of PREG [3H]) [%]	binding sites of PREG [3H] destroyed (enzyme treatment of cytosol) [%]	effect on binding sites of PREG [3H] (in words) (enzyme treatment of cytosol)
B1	42.4 ± 7.5	60	–
B2	82.4 ± 9.2	–	no significant effect

Reference: US20030125311A1, “Compounds capable of binding with the cytoskeleton” (priority 2002, published 2003)
